Data taken from the supplement of paper PMC9170038.

Tested on: MS2 coat protein
Assay: apparent KD of MS2 coat protein; higher = weaker reporter binding
Conditions: Eterna round: R107
Method in brief: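 Designed RNA switches, transcribed on-chip from Illumina sequencing clusters, were titrated with SNAP-549-labelled MS2 coat protein from 0.7 or 1.5 nM to 3 µM in twofold steps. The solution was 100 mM Tris-HCl pH 7.5, 80 mM KCl, 4 mM MgCl2, with constant ligand or without it. Apparent KD is the median over each design's normalised cluster binding-curve fits.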

[1] = input ligand: theophylline 20 uM
[2] = input ligand: theophylline 2 mM
[3] = input ligand: tryptophan 2.4 mM

Sequence	apparent KD of MS2 coat protein (input ligand: arginine 13.2 mM)	apparent KD of MS2 coat protein [1]	apparent KD of MS2 coat protein [2]	apparent KD of MS2 coat protein (input ligand: none)	apparent KD of MS2 coat protein [3]
UAUCGUCAGACGGCCGCCACUAGAACAUGAGGAUCACCCAUGUACCCGGUCCAUUCCUCAUUAACUAGGACCGGGUCUGACGAAU [(Trp1)-(Ms2)-(T)'-(M)'-(Trp2)_Design13]	88.3 nM	129 nM	131 nM	–	–
UAUCGUCAGACGGCCGCCACUAGAACAUGAGGAUCACCCAUGUACGGCCGCCCGGUGUGAUCCACUAGGACCGGGUCUGACGAAU [(Trp1)-(Ms2)-(T)'-(M)'-(Trp2)_Design23]	39.3 nM	77.9 nM	95.7 nM	66.8 nM	53.8 nM
UAUCUUGCGGGCGCCCGCAAGGUUGCGGAUACCAGCGAGAUAAAUCGCCCUUGGCAGCCGAACAUGAGGAUCACCCAUGUCGGAC [Same State - Theophylline A Attempt #1 (HarryS)]	7.94 nM	11.8 nM	–	–	9.87 nM
UAUGCACAUGAGGAUCACCCAUGUAUGGAAGGAGCGGUGAAUAAACCAGGUAGGUCGCCAUUGUGAGGGUCAUCUAUGUAAUCGU [Exclusion - Arginine A (Freestyle 4)]	58.6 nM	125 nM	133 nM	85.3 nM	91.8 nM
UAUUAUAACCGAAGGAGCGGGAAAGAUGAUUUUUAAUAUUAACAUGAGGAUCACCCAUGUACCCAGGUAGGUCGCGGAUAUUAUU [Default title]	23.8 nM	23.4 nM	20.7 nM	19.5 nM	19 nM
UAUUUUGUGAUGGAUACCAGCAGAGAAAACGUUUAUCCUAACAUGAGGAUCACCCAUGUAUGCCCUUGGCAGCUGUUGUGGGAUA [8.Q]	24.9 nM	42 nM	–	–	29.9 nM
UCACAUGAGGAUCACCCAUGUACAGGCGAUACCAGCCGUACAUUGGGCCCUUGGCAGCGCACCGAGACCUUUUAAAGCACUUCGG [Er]	33.5 nM	103 nM	–	–	34.7 nM
UCACGACGCAACGUGAGAUAAUGAACAGAAGGAGCGAGGAGAGCCUCAGGUAGGUCGCUGACAUGAGGAUCACCCAUGUAUUACA [Same State Arginine A GF6]	63.8 nM	84.2 nM	80 nM	82.8 nM	65.2 nM
UCAGUGCAAGGAAGGAGCGGGUACAUGAGGAUCACCCAUGUGCAAGUGGUGAGUGUUCGUGCCCAGGUAGGUCGCCUAGCCUGGU [XArg-B19]	36.4 nM	122 nM	348 nM	192 nM	54.5 nM
UCAUAAGUACCGGUCCUCAGAUCCUCAUGACGAGGACCGGUACGGCCGCCACUCGAAACAUGAGGAUCACCCAUGUAAUAAUAUU [Brourdmod11]	19.5 nM	28.5 nM	27.3 nM	–	–
UCAUGCAGGUCGGCCGCCACUACACACAUGAGGAUCACCCAUGUAGUUACUGGGUGAAGUGGCAGUAGGACCGGGACCUGCAUAC [Brourdmod09]	89.1 nM	604 nM	342 nM	591 nM	78 nM
UCAUUUGAGUGAGAUGUAAGGUAUCAUGAUACCAGUAGAUAAUUAUACCCUUGGCAGCAUAACAUGAGGAUCACCCAUGUACAUG [Ac]	20.1 nM	27 nM	–	–	19.6 nM
UCCUCCUCCGCAAGGAGGAGGAGUUGCGAUACCAGCACGGCAACGUGCCCUUGGCAGCGCACAUGAGGAUCACCCAUGUCAUGUU [#1 Exclusion - Theophylline A Attempt #10 (HarryS)]	15.5 nM	29.5 nM	–	–	18.8 nM
UCGCAUUGCUCAGAUACCAGACAUGAGGAUCACCCAUGUACCAAGGUAACCGAAAGGCAUGUCCCUUGGCAGCUGAGCAAUGCGU [MAT - Exclusion Theophlline B - Mod of Eli - D14]	12.4 nM	21.1 nM	–	–	13.1 nM
UCGCAUUGCUGCGAUACCAGACAUGAGGAUCACCCAUGUACCAAGGUACGAAAAUAACAUGUCCCUUGGCAGCGCAGCAAUGCGU [MAT - Exclusion Theophlline B - Mod of Eli - D5]	11.9 nM	30.1 nM	–	–	13.9 nM
UCGCCAUUGACGGCCGCCACUCAAUGGUCUUCUCUGAACAUAAUUAACAUGAGGAUCACCCAUGUGAGGACCGGGUCGGUUAGAC [theeternabot_exclusion_MS2_Trp_B_24]	17.4 nM	23.5 nM	20.4 nM	–	–
UCGCUCUGGGUGAAUUCCGGAGAUGUGGAAGGAGCGGACGAAAGUCCAGGUAGGUCGCCAUCGGACAUGAGGAUCACCCAUGUAC [Same State - Arginine A (Freestyle 22)]	55.6 nM	99.8 nM	100 nM	122 nM	89.9 nM
UCGCUCUGGGUGAGUUCCGGAGAUGUGGAAGGAGCGCUCGAAAGAGCAGGUAGGUCGCCAACGGACAUGAGGAUCACCCAUGUAC [Same State - Arginine A (Freestyle 21)]	33.8 nM	76.1 nM	34.4 nM	39.1 nM	40.3 nM
UCGGGCAGAGCGGCCGCCACUGUAAGGCGUGCGGAUGACGGAACAUGAGGAUCACCCAUGUUGUUUAGGACCGGGCUUGCGGCGA [nynullin]	22.5 nM	27.2 nM	11.2 nM	15.8 nM	16.7 nM
